Test results reported in paper PMC11584402.

Experiments:
[1] = biological target: MCL1-mCherry (human), Q07820; assay: probe binding assay (PBA; single-molecule pull-down with TIRF counting); mCherry-labelled anti-apoptotic protein from HEK293T crude extract immobilised on the PEG surface (anti-RFP antibody); eGFP-labelled probe in crude HEK293T extract added at 0-20 nM eGFP, 10 min; fractional occupancy of surface baits fitted to [probe]/(Kd+[probe]); conditions: remark: other sources report otherwise
[2] = biological target: MCL1-mCherry (human), Q07820; assay: probe binding assay (PBA; single-molecule pull-down with TIRF counting); mCherry-labelled anti-apoptotic protein immobilised from HEK293T crude extract on a PEG surface (biotinylated anti-RFP antibody); crude HEK293T extract with the eGFP-labelled probe diluted to a range of eGFP concentrations, 10 min; fractional occupancy of surface baits at equilibrium fitted with n fixed to 1 or with the generalized Hill …; conditions: remark: other sources report otherwise
[3] = biological target: BCL2-mCherry (human), P10415; conditions: natural protein; chains chain; remark: other sources report otherwise
[4] = biological target: BCLxL-mCherry (human), Q07817; assay: probe binding assay (PBA; single-molecule pull-down with TIRF counting); mCherry-labelled anti-apoptotic protein immobilised from HEK293T crude extract on a PEG surface (biotinylated anti-RFP antibody); crude HEK293T extract with the eGFP-labelled probe diluted to a range of eGFP concentrations, 10 min; fractional occupancy of surface baits at equilibrium fitted with n fixed to 1 or with the generalized Hill …; conditions: remark: other sources report otherwise
BCLxL-mCherry (human), Q07817, sequence (Q07817 whole entry): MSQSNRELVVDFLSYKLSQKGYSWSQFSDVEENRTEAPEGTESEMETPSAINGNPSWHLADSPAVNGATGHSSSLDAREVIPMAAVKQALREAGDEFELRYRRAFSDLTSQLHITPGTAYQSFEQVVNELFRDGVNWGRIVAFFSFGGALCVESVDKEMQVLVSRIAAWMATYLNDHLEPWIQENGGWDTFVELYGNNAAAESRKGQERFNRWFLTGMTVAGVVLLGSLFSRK

MCL1-mCherry (human), Q07820, sequence (Q07820 whole entry): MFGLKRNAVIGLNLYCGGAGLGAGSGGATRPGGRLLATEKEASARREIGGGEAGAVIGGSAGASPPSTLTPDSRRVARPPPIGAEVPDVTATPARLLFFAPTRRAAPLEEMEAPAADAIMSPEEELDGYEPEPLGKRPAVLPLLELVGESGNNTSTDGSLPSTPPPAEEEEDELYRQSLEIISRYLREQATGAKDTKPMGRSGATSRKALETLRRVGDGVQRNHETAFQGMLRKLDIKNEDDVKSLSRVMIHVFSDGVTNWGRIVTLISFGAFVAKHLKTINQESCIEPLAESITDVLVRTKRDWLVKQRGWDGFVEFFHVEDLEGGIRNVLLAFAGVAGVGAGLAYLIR
BCL2-mCherry (human), P10415, sequence (P10415 whole entry): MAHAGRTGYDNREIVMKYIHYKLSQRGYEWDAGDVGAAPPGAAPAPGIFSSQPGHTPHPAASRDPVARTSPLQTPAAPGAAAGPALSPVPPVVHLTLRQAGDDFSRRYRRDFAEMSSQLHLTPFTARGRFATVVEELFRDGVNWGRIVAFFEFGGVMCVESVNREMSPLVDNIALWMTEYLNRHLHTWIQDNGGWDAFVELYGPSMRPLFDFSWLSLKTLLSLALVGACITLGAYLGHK

| Kd [1] [nM] | Kd [2] [nM] | Kd [3] [nM] | Kd [4] [nM] | Binder |
| --- | --- | --- | --- | --- |
| 4.1 | 4.1 |  |  | NOXA-eGFP, Q13794 1-54 (natural protein) MPGKKARKNAQPSPARAPAELEVECATQLRRFGDKLNFRQKLLNLISKLFCSGT |
|  |  | 5.5 | 2.5 | BAD-eGFP, Q92934 1-168 (natural protein) MFQIPEFEPSEQEDSSSAERGLGPSPAGDGPSGSGKHHRQAPGLLWDASHQQEQPTSSSHHGGAGAVEIRSRHSSYPAGTEDDEGMGEEPSPFRGRSRSAPPNLWAAQRYGRELRRMSDEFVDSFKKGLPRPKSAGTATQMRQSSSWTRVFQSWWDRNLGRGSSAPSQ |
